Laboratory results as given in patent US20090099029A1, “Methods and substrates for conducting assays” (Invitrogen Corporation, priority 2005, published 2009).

B1: NEK3 (protein)
chain: MDDYMVLRMIGEGSFGRALLVQHESSNQMFAMKEIRLPKSFSNTQNSRKEAVLLAKMKHPNIVAFKESFEAEGHLYIVMEYCDGGDLMQKIKQQKGKLFPEDMILNWFTQMCLGVNHIHKKRVLHRDIKSKNIFLTQNGKVKLGDFGSARLLSNPMAFACTYVGTPYYVPPEIWENLPYNNKSDIWSLGCILYELCTLKHPFQANSWKNLILKVCQGCISPLPSHYSYELQFLVKQMFKRNPSHRPSATTLLSRGIVARLVQKCLPPEIIMEYGEEVLEEIKNSKHNTPRKKTNPSRIRIALGNEASTVQEEEQDRKGSHTDLESINENLVESALRRVNREEKGNKSVHLRKASSPNLHRRQWEKNVPNTALTALENASILTSSLTAEDDRGGSVIKYSKNTTRKQWLKETPDTLLNILKNADLSLAFQTYTIYRPGSEGFLKGPLSEETEASDSVDGGHDSVILDPERLEPGLDEEDTDFEEEDDNPDWVSELKKRAGWQGLCDR
modifications: left off: a dimerising Fc or GST
B2: MAPKAPK5(PRAK) (protein)
chain: MSEESDMDKAIKETSILEEYSINWTQKLGAGISGPVRVCVKKSTQERFALKILLDRPKARNEVRLHMMCATHPNIVQIIEVFANSVQFPHESSPRARLLIVMEMMEGGELFHRISQHRHFTEKQASQVTKQIALALRHCHLLNIAHRDLKPENLLFKDNSLDAPVKLCDFGFAKIDQGDLMTPQFTPYYVAPQVLEAQRRHQKEKSGIIPTSPTPYTYNKSCDLWSLGVIIYVMLCGYPPFYSKHHSRTIPKDMRRKIMTGSFEFPEEEWSQISEMAKDVVRKLLKVKPEERLTIEGVLDHPWLNSTEALDNVLPSAQLMMDKAVVAGIQQAHAEQLANMRIQDLKVSLKPLHSVNNPILRKRKLLGTKPKDSVYIHDHENGAEDSNVALEKLRDVIAQCILPQAGENEDEKLNEVMQEAWKYNRECKLLRDTLQSFSWNGRGFTDKVDRLKLAEIVKQVIEEQTTSHESQ
modifications: left off: small tags and cut ends
B3: PAK1 (protein)
chain: MSNNGLDIQDKPPAPPMRNTSTMIGAGSKDAGTLNHGSKPLPPNPEEKKKKDRFYRSILPGDKTNKKKEKERPEISLPSDFEHTIHVGFDAVTGEFTGMPEQWARLLQTSNITKSEQKKNPQAVLDVLEFYNSKKTSNSQKYMSFTDKSAEDYNSSNALNVKAVSETPAVPPVSEDEDDDDDDATPPPVIAPRPEHTKSVYTRSVIEPLPVTPTRDVATSPISPTENNTTPPDALTRNTEKQKKKPKMSDEEILEKLRSIVSVGDPKKKYTRFEKIGQGASGTVYTAMDVATGQEVAIKQMNLQQQPKKELIINEILVMRENKNPNIVNYLDSYLVGDELWVVMEYLAGGSLTDVVTETCMDEGQIAAVCRECLQALEFLHSNQVIHRDIKSDNILLGMDGSVKLTDFGFCAQITPEQSKRSTMVGTPYWMAPEVVTRKAYGPKVDIWSLGIMAIEMIEGEPPYLNENPLRALYLIATNGTPELQNPEKLSAIFRDFLNRCLEMDVEKRGSAKELLQHQFLKIAKPLSSLTPLIAAAKEATKNNH
modifications: left off: a dimerising Fc or GST
B4: NEK2 (protein)
chain: MPSRAEDYEVLYTIGTGSYGRCQKIRRKSDGKILVWKELDYGSMTEAEKQMLVSEVNLLRELKHPNIVRYYDRIIDRTNTTLYIVMEYCEGGDLASVITKGTKERQYLDEEFVLRVMTQLTLALKECHRRSDGGHTVLHRDLKPANVFLDGKQNVKLGDFGLARILNHDTSFAKTFVGTPYYMSPEQMNRMSYNEKSDIWSLGCLLYELCALMPPFTAFSQKELAGKIREGKFRRIPYRYSDELNEIITRMLNLKDYHRPSVEEILENPLIADLVADEQRRNLERRGRQLGEPEKSQDSSPVLSELKLKEIQLQERERALKAREERLEQKEQELCVRERLAEDKLARAENLLKNYSLLKERKFLSLASNPELLNLPSSVIKKKVHFSGESKENIMRSENSESQLTSKSKCKDLKKRLHAAQLRAQALSDIEKNYQLKSRQILGMR
modifications: left off: small tags and cut ends
B5: MINK1 (protein)
chain: MGDPAPARSLDDIDLSALRDPAGIFELVEVVGNGTYGQVYKGRHVKTGQLAAIKVMDVTEDEEEEIKQEINMLKKYSHHRNIATYYGAFIKKSPPGNDDQLWLVMEFCGAGSVTDLVKNTKGNALKEDCIAYICREILRGLAHLHAHKVIHRDIKGQNVLLTENAEVKLVDFGVSAQLDRTVGRRNTFIGTPYWMAPEVIACDENPDATYDYRSDIWSLGITAIEMAEGAPPLCDMHPMRALFLIPRNPPPRLKSKKWSKKFIDFIDTCLIKTYLSRPPTEQLLKFPFIRDQPTERQVRIQLKDHIDRSRKKRGEKEETE
modifications: left off: a dimerising Fc or GST
B6: PAK3 (protein)
chain: MSDGLDNEEKPPAPPLRMNSNNRDSSALNHSSKPLPMAPEEKNKKARLRSIFPGGGDKTNKKKEKERPEISLPSDFEHTIHVGFDAVTGEFTGIPEQWARLLQTSNITKLEQKKNPQAVLDVLKFYDSKETVNNQKYMSFTSGDKSAHGYIAAHPSSTKTASEPPLAPPVSEEEDEEEEEEEDENEPPPVIAPRPEHTKSIYTRSVVESIASPAVPNKEVTPPSAENANSSTLYRNTDRQRKKSKMTDEEILEKLRSIVSVGDPKKKYTRFEKIGQGASGTVYTALDIATGQEVAIKQMNLQQQPKKELIINEILVMRENKNPNIVNYLDSYLVGDELWVVMEYLAGGSLTDVVTETCMDEGQIAAVCRECLQALDFLHSNQVIHRDIKSDNILLGMDGSVKLTDFGFCAQITPEQSKRSTMVGTPYWMAPEVVTRKAYGPKVDIWSLGIMAIEMVEGEPPYLNENPLRALYLIATNGTPELQNPERLSAVFRDFLNRCLEMDVDRRGSAKELLQHPFLKLAKPLSSLTPLIIAAKEAIKNSSR
modifications: left off: small tags and cut ends
B7: MAPK14(p38alpha) (protein)
chain: MSQERPTFYRQELNKTIWEVPERYQNLSPVGSGAYGSVCAAFDTKTGLRVAVKKLSRPFQSIIHAKRTYRELRLLKHMKHENVIGLLDVFTPARSLEEFNDVYLVTHLMGADLNNIVKCQKLTDDHVQFLIYQILRGLKYIHSADIIHRDLKPSNLAVNEDCELKILDFGLARHTDDEMTGYVATRWYRAPEIMLNWMHYNQTVDIWSVGCIMAELLTGRTLFPGTDHINQLQQIMRLTGTPPAYLINRMPSHEARNYIQSLTQMPKMNFANVFIGANPLAVDLLEKMLVLDSDKRITAAQALAHAYFAQYHDPDDEPVADPYDQSFESRDLLIDEWKSLTYDEVISFVPPPLDQEEMES
modifications: left off: a dimerising Fc or GST
B8: MYLK2 (protein)
chain: MATENGAVELGIQNPSTDKAPKGPTGERPLAAGKDPGPPDPKKAPDPPTLKKDAKAPASEKGDGTLAQPSTSSQGPKGEGDRGGGPAEGSAGPPAALPQQTATPETSVKKPKAEQGASGSQDPGKPRVGKKAAEGQAAARRGSPAFLHSPSCPAIISSSEKLLAKKPPSEASELTFEGVPMTHSPTDPRPAKAEEGKNILAESQKEVGEKTPGQAGQAKMQGDTSRGIEFQAVPSEKSEVGQALCLTAREEDCFQILDDCPPPPAPFPHRMVELRTGNVSSEFSMNSKEALGGGKFGAVCTCMEKATGLKLAAKVIKKQTPKDKEMVLLEIEVMNQLNHRNLIQLYAAIETPHEIVLFMEYIEGGELFERIVDEDYHLTEVDTMVFVRQICDGILFMHKMRVLHLDLKPENILCVNTTGHLVKIIDFGLARRYNPNEKLKVNFGTPEFLSPEVVNYDQISDKTDMWSMGVITYMLLSGLSPFLGDDDTETLNNVLSGNWYFDEETFEAVSDEAKDFVSNLIVKDQRARMNAAQCLAHPWLNNLAEKAKRCNRRLKSQILLKKYLMKRRWKKNFIAVSAANRFKKISSSGALMALGV
modifications: left off: a dimerising Fc or GST
B9: MAPKAPK3 (protein)
chain: MDGETAEEQGGPVPPPVAPGGPGLGGAPGGRREPKKYAVTDDYQLSKQVLGLGVNGKVLECFHRRTGQKCALKLLYDSPKARQEVDHHWQASGGPHIVCILDVYENMHHGKRCLLIIMECMEGGELFSRIQERGDQAFTEREAAEIMRDIGTAIQFLHSHNIAHRDVKPENLLYTSKEKDAVLKLTDFGFAKETTQNALQTPCYTPYYVAPEVLGPEKYDKSCDMWSLGVIMYILLCGFPPFYSNTGQAISPGMKRRIRLGQYGFPNPEWSEVSEDAKQLIRLLLKTDPTERLTITQFMNHPWINQSMVVPQTPLHTARVLQEDKDHWDEVKEEMTSALATMRVDYDQVKIKDLKTSNNRLLNKRRKKQAGSSSASQGCNNQ
modifications: left off: small tags and cut ends
B10: EPHA5 (protein)
chain: SGSCCECGCGRASSLCAVAHPSLIWRCGYSKAKQDPEEEKMHFHNGHIKLPGVRTYIDPHTYEDPNQAVHEFAKEIEASCITIERVIGAGEFGEVCSGRLKLPGKRELPVAIKTLKVGYTEKQRRDFLGEASIMGQFDHPNIIHLEGVVTKSKPVMIVTEYMENGSLDTFLKKNDGQFTVIQLVGMLRGISAGMKYLSDMGYVHRDLAARNILINSNLVCKVSDFGLSRVLEDDPEAAYTTRGGKIPIRWTAPEAIAFRKFTSASDVWSYGIVMWEVVSYGERPYWEMTNQDVIKAVEEGYRLPSPMDCPAALYQLMLDCWQKERNSRPKFDEIVNMLDKLIRNPSSLKTLVNASCRVSNLLAEHSPLGSGAYRSVGEWLEAIKMGRYTEIFMENGYSSMDAVAQVTLEDLRRLGVTLVGHQKKIMNSLQEMKVQLVNGMVPL
modifications: left off: a dimerising Fc or GST
B11: MAPK8(JNK1) (protein)
chain: MSRSKRDNNFYSVEIGDSTFTVLKRYQNLKPIGSGAQGIVCAAYDAILERNVAIKKLSRPFQNQTHAKRAYRELVLMKCVNHKNIIGLLNVFTPQKSLEEFQDVYIVMELMDANLCQVIQMELDHERMSYLLYQMLCGIKHLHSAGIIHRDLKPSNIVVKSDCTLKILDFGLARTAGTSFMMTPYVVTRYYRAPEVILGMGYKENVDLWSVGCIMGEMVCHKILFPGRDYIDQWNKVIEQLGTPCPEFMKKLQPTVRTYVENRPKYAGYSFEKLFPDVLFPADSEHNKLKASQARDLLSKMLVIDASKRISVDEALQHPYINVWYDPSEAEAPPPKIPDKQLDEREHTIEEWKELIYKEVMDLEERTKNGVIRGQPSPLAQVQQ
modifications: left off: small tags and cut ends

These molecules were tested on kinases of Table 6 on Myelin Basic Protein (MBP) (assay: Kinase assay using MBP substrate, ProQ Diamond stain (Table 6)). Conditions: kinase printed on MBP-coated slide; 20 uM ATP, 30° C.; ProQ Diamond Microarray Stain; graded Strong/Weak/Negative.
Assay type: biochemical
How it was run: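 Reactions ran at 30° C. with 20 uM ATP, 4 mM MgCl2 and 5% DMSO in HEPES pH 7.5, inhibitor added or omitted. Kinases had been arrayed onto slide-bound dephosphorylated bovine MBP; phospho-signal read after ProQ Diamond staining.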
For B1, the “MBP Kinase Activity” value was “Negative”.
B2 was tested, and the “MBP Kinase Activity” value was “Strong”.
With B3 the “MBP Kinase Activity” value was “Negative”.
For B4, the “MBP Kinase Activity” value was “Strong”.
With B5 the “MBP Kinase Activity” value was “Weak”.
In the case of B6, the “MBP Kinase Activity” value is reported as “Weak”.
With B7 the “MBP Kinase Activity” value was “Strong”.
With B8 the “MBP Kinase Activity” value was “Negative”.
B9 was tested, and the “MBP Kinase Activity” value was “Strong”.
With B10 the “MBP Kinase Activity” value was “Negative”.
With B11 the “MBP Kinase Activity” value was “Negative”.
